From patent publication US9205136B2, “Human aminoacyl-tRNA synthetase polypeptides useful for the regulation of angiogenesis” (THE SCRIPPS RESEARCH INSTITUTE, priority 2000, dated 2015)

B1: inactive TrpRS: minor PMN elastase fragment of TrpRS, amino-terminal residue at position 94 of full-length TrpRS (protein)
chain: MSAKGIDYDKLIVRFGSSKIDKELINRIERATGQRPHHFLRRGIFFSHRDMNQVLDAYENKKPFYLYTGRGPSSEAMHVGHLIPFIFTKWLQDVFNVPLVIQMTDDEKYLWKDLTLDQAYGDAVENAKDIIACGFDINKTFIFSDLDYMGMSSGFYKNVVKIQKHVTFNQVKGIFGFTDSDCIGKISFPAIQAAPSFSNSFPQIFRDRTDIQCLIPCAIDQDPYFRMTRDVAPRIGYPKPALLHSTFFPALQGAQTKMSASDPNSSIFLTDTAKQIKTKVNKHAFSGGRDTIEEHRQFGGNCDVDVSFMYLTFFLEDDDKLEQIRKDYTSGAMLTGELKKALIEVLQPLIAEHQARRKEVTDEIVKEFMTPRKLSFDFQKLAAALEHHHHHH
modifications: His6 tag; Human inactive TrpRS in pET20B
notes: minor PMN elastase fragment of TrpRS, amino-terminal residue at position 94 of full-length TrpRS
B2: supermini TrpRS: residues 71-471 of full-length TrpRS, major PMN elastase fragment (protein)
chain: MSNHGPDATEAEEDFVDPWTVQTSSAKGIDYDKLIVRFGSSKIDKELINRIERATGQRPHHFLRRGIFFSHRDMNQVLDAYENKKPFYLYTGRGPSSEAMHVGHLIPFIFTKWLQDVFNVPLVIQMTDDEKYLWKDLTLDQAYGDAVENAKDIIACGFDINKTFIFSDLDYMGMSSGFYKNVVKIQKHVTFNQVKGIFGFTDSDCIGKISFPAIQAAPSFSNSFPQIFRDRTDIQCLIPCAIDQDPYFRMTRDVAPRIGYPKPALLHSTFFPALQGAQTKMSASDPNSSIFLTDTAKQIKTKVNKHAFSGGRDTIEEHRQFGGNCDVDVSFMYLTFFLEDDDKLEQIRKDYTSGAMLTGELKKALIEVLQPLIAEHQARRKEVTDEIVKEFMTPRKLSFDFQKLAAALEHHHHHH
modifications: His6 tag; Human supermini TrpRS in pET20B
notes: residues 71-471 of full-length TrpRS, major PMN elastase fragment
B3: full-length TrpRS: recombinant human tryptophanyl-tRNA synthetase, 471 amino acid residues (protein)
chain: MPNSEPASLLELFNSIATQGELVRSLKAGNASKDEIDSAVKMLVSLKMSYKAAAGEDYKADCPPGNPAPTSNHGPDATEAEEDFVDPWTVQTSSAKGIDYDKLIVRFGSSKIDKELINRIERATGQRPHHFLRRGIFFSHRDMNQVLDAYENKKPFYLYTGRGPSSEAMHVGHLIPFIFTKWLQDVFNVPLVIQMTDDEKYLWKDLTLDQAYGDAVENAKDIIACGFDINKTFIFSDLDYMGMSSGFYKNVVKIQKHVTFNQVKGIFGFTDSDCIGKISFPAIQAAPSFSNSFPQIFRDRTDIQCLIPCAIDQDPYFRMTRDVAPRIGYPKPALLHSTFFPALQGAQTKMSASDPNSSIFLTDTAKQIKTKVNKHAFSGGRDTIEEHRQFGGNCDVDVSFMYLTFFLEDDDKLEQIRKDYTSGAMLTGELKKALIEVLQPLIAEHQARRKEVTDEIVKEFMTPRKLSFDFQKLAAALEHHHHHH
modifications: His6 tag; Human full-length TrpRS in pET20B
notes: recombinant human tryptophanyl-tRNA synthetase, 471 amino acid residues
B4: mini TrpRS: truncated TrpRS, residues 48-471 of full-length TrpRS (protein)
chain: MSYKAAAGEDYKADCPPGNPAPTSNHGPDATEAEEDFVDPWTVQTSSAKGIDYDKLIVRFGSSKIDKELINRIERATGQRPHHFLRRGIFFSHRDMNQVLDAYENKKPFYLYTGRGPSSEAMHVGHLIPFIFTKWLQDVFNVPLVIQMTDDEKYLWKDLTLDQAYGDAVENAKDIIACGFDINKTFIFSDLDYMGMSSGFYKNVVKIQKHVTFNQVKGIFGFTDSDCIGKISFPAIQAAPSFSNSFPQIFRDRTDIQCLIPCAIDQDPYFRMTRDVAPRIGYPKPALLHSTFFPALQGAQTKMSASDPNSSIFLTDTAKQIKTKVNKHAFSGGRDTIEEHRQFGGNCDVDVSFMYLTFFLEDDDKLEQIRKDYTSGAMLTGELKKALIEVLQPLIAEHQARRKEVTDEIVKEFMTPRKLSFDFQKLAAALEHHHHHH
modifications: His6 tag; Human mini TrpRS in pET20B
notes: truncated TrpRS, residues 48-471 of full-length TrpRS

system: HUVEC; assay: Inhibition of VEGF165-induced cell proliferation; assay type: cell-based, human; conditions: 2 μM TrpRS, 2 nM VEGF165, 72 hours
Description: The angiostatic activity of TrpRS was first evaluated in experiments testing the ability of human full-length TrpRS and human mini TrpRS to inhibit human VEGF165-induced cell proliferation. Tissue culture-treated 96-well plates (Corning Costar Corp., Cambridge, Mass.) were coated with 0.1% gelatin (Sigma) overnight. Cells were then seeded in the gelatinized plates at a density of 5×10^3 cells per well in DMEM medium (Gibco-BRL) containing heat-inactivated fetal bovine serum (FBS) (10%, Sigma) and penicillin/streptomycin (100 units/mL-100 μg/mL, Sigma). The following day, the cells were treated with 2 μM of a given TrpRS in the presence of 2 nM VEGF165. After 72 hours of incubation, assays were performed by using the […] 96® aqueous one-solution cell proliferation assay kit (Promega, Madison, Wis.). Results of the inhibition assay are shown in FIG. 18 as the percentage of net proliferation of VEGF165. Each determination shown represents the mean of five experiments.

| Molecule | inhibition of VEGF165-induced cell proliferation |
| --- | --- |
| B1 | did not exhibit angiostatic activity |
| B2 | capable of inhibiting HUVEC proliferation and migration |
| B3 | exhibited no angiostatic activity |
| B4 | able to inhibit human VEGF165-induced cell proliferation |

system: HUVEC; assay: Inhibition of VEGF165-induced or mini TyrRS-induced HUVEC migration; assay type: cell-based, human; conditions: 500 nM TrpRS, 0.5 nM VEGF165
Description: Cell migration assays were performed using the modified Boyden chamber (6.5 mm Transwells) with polycarbonate membranes (8.0 μm pore size) (Costar Corp., Cambridge, Mass.) (Masood et al., 1999, Blood 93:1038-44). Wells were coated overnight with 25 μg/mL human fibronectin (Biosource International, Camarillo, Calif.) in PBS and then allowed to air-dry. HUVECs were suspended in Dulbecco's modified Eagle's medium (DMEM) (Gibco-BRL, Gaithersburg, Md.) containing 0.1% BSA (Sigma) and 2×10^5 cells per well were added to the upper chamber. The chemotactic stimulus (50 nM of a given TyrRS molecule or 0.5 nM of human vascular endothelial growth factor-165 (VEGF165) (Biosource International, Camarillo, Calif.)) was placed in the lower chamber, and the cells were allowed to migrate for 6 hours at 37° C. in a 6% CO2 incubator. After incubation, non-migrant cells were removed from the upper face of the Transwell membrane with a cotton swab and migrant cells, those attached to the lower face, were fixed in methanol and visualized with the HEMACOLOR® stain set (EM Diagnostic Systems, Gibbstown, N.J.). Migrating cells were counted in high-power fields (HPFs). HUVECs were suspended in media with the inhibitor for 30 minutes before placement in the chamber. Each determination shown in FIG. 16 represents the average of nine HPF measurements.
The angiostatic activity of TrpRS was next evaluated in experiments testing the ability of human full-length TrpRS and human mini TrpRS to inhibit human VEGF165-induced or human mini TyrRS-induced cell migration. Cell migration assays were performed as described in Example 11 with full-length TrpRS or mini TrpRS added to VEGF165-induced or mini TyrRS-induced HUVEC samples. HUVEC samples were treated with 0.5 nM VEGF165, 50 nM mini TyrRS, and 500 nM of a given TrpRS. Four measurements of chemotaxis were done for each protein. Each determination shown in FIG. 19 represents the average of nine HPF measurements. […] In contrast, human full-length TrpRS had no effect on VEGF165-induced or mini TyrRS-induced HUVEC chemotaxis.

| Molecule | inhibition of VEGF165-induced HUVEC chemotaxis |
| --- | --- |
| B3 | had no effect |
| B4 | inhibited |

same assay, conditions: 500 nM TrpRS, 50 nM mini TyrRS

| Molecule | inhibition of mini TyrRS-induced HUVEC chemotaxis |
| --- | --- |
| B3 | had no effect |
| B4 | inhibited |

same assay, conditions: as described in Example 14, inducer not stated

| Molecule | inhibition of HUVEC migration |
| --- | --- |
| B1 | did not exhibit angiostatic activity |
| B2 | capable of inhibiting HUVEC proliferation and migration |

system: chick CAM; assay: Inhibition of VEGF165-induced or mini TyrRS-induced angiogenesis in chick CAM; assay type: in vivo; conditions: 3 μg inhibitor, 25 ng VEGF165, 72 hours
Description: In vivo angiogenesis assays were conducted in chick chorioallantoic membrane (CAM) (Nicolaou et al., 1998, Bioorg. Med. Chem. 6:1185-208). Ten-day-old chick embryos were purchased from Mcintyre Poultry (Lakeside, Calif.) and were incubated at 37° C. and 70% humidity. A small hole was made with a small crafts drill (Dremel, Emerson Electric, Racine, Wis.) directly over the air sac at the end of the egg. The embryos were candled to determine a location to drill a second hole directly over embryonic blood vessels. […] A window was cut in the eggshell over the dropped CAM, exposing the CAM to direct access for experimental manipulation. Cortisone acetate-treated 5 mm filter disks were soaked with a particular protein sample (25 ng of VEGF165 or 250 ng of a given TyrRS molecule) and the filter disks added directly to the CAMs, which were relatively devoid of preexisting blood vessels. The windows were sealed with sterile tape and incubated at 37° C. At 0, 24, and 48 hours following incubation, 3 μg of […] (IP-10) (R & D Systems, Minneapolis, Minn.) was topically applied to the filter disks. After 72 hours, the CAM tissue associated with the filter disk was harvested and quantified using a stereomicroscope. Angiogenesis was assessed as the number of visible blood vessel branch points within the defined area of the filter disks. Each determination shown in FIG. 17 represents the mean from 5-8 embryos.
The angiostatic activity of human full-length TrpRS and human mini TrpRS was also analyzed in in vivo angiogenesis assays conducted in chick CAM. In vivo angiogenesis assays were performed as described in Example 12 with 3 μg of full-length TrpRS or mini TrpRS added to VEGF165-induced or mini TyrRS-induced CAM tissue.

| Molecule | inhibition of VEGF165-induced angiogenesis in chick CAM |
| --- | --- |
| B1 | did not exhibit angiostatic activity |
| B2 | capable of inhibiting |
| B3 | no observable angiostatic activity |
| B4 | inhibited |

same assay, conditions: 3 μg inhibitor, 250 ng mini TyrRS, 72 hours

| Molecule | inhibition of mini TyrRS-induced angiogenesis in chick CAM |
| --- | --- |
| B1 | did not exhibit angiostatic activity |
| B2 | capable of inhibiting |
| B3 | no observable angiostatic activity |
| B4 | inhibited |
